Source: PMC9530208, “MutS functions as a clamp loader by positioning MutL on the DNA during mismatch repair”

Assays:
[1] = target: MutS;MutL (Escherichia coli;Escherichia coli) (UniProt P23367); experiment: smTIRF; settings: ATP, 10 nM MutL, single mismatch, smTIRF: 20 mM Tris-HCl pH 7.5, 0.1 mM DTT, 0.2 mg/mL acetylated BSA, 0.0025% P-20, 5 mM MgCl2, 100 mM NaCl (Buffer C), 1 mM ATP or AMP-PNP, NaCl varied …, scale: fraction of DNA molecules with MutL sliding clamp
MutL (Escherichia coli) = MutL (Escherichia coli) (UniProt P23367); experiment: smTIRF; settings: ATP, no MutS, 10 mM NaCl, 10 nM MutL; single mismatch; smTIRF: 20 mM Tris-HCl pH 7.5, 0.1 mM DTT, 0.2 mg/mL acetylated BSA, 0.0025% P-20, 5 mM MgCl2, 100 mM NaCl (Buffer C), 1 mM ATP or AMP-PNP; NaCl varied …; scale: fraction of DNA molecules with MutL sliding clamp
[2] = target: MutL(R-E) R162E;R266E;R316E (Escherichia coli) (UniProt P23367); experiment: smTIRF; settings: 30 mM NaCl, 2 nM protein; single mismatch; smTIRF: 20 mM Tris-HCl pH 7.5, 0.1 mM DTT, 0.2 mg/mL acetylated BSA, 0.0025% P-20, 5 mM MgCl2, 100 mM NaCl (Buffer C), 1 mM ATP or AMP-PNP; NaCl varied …; scale: fold fewer binding events than wild-type MutL
[3] = system: MutL(R266E) (Escherichia coli); experiment: smTIRF; settings: 30 mM NaCl, 2 nM protein; single mismatch; smTIRF: 20 mM Tris-HCl pH 7.5, 0.1 mM DTT, 0.2 mg/mL acetylated BSA, 0.0025% P-20, 5 mM MgCl2, 100 mM NaCl (Buffer C), 1 mM ATP or AMP-PNP; NaCl varied …; scale: fold fewer binding events than wild-type MutL
MutS-bio;MutL = MutS-bio;MutL (Escherichia coli;Escherichia coli, UniProt P23909;P23367 1-853;1-615, |); experiment: smTIRF; ATP; immobilized MutS-bio, MutL co-localization lifetime 29 +/- 2 s; smTIRF: 20 mM Tris-HCl pH 7.5, 0.1 mM DTT, 0.2 mg/mL acetylated BSA, 0.0025% P-20, 5 mM MgCl2, 100 mM NaCl (Buffer C), 1 mM ATP or AMP-PNP; NaCl varied 10-100 mM; Mg2+ omitted for MutL-only binding per reviewer comment; temperature not given; settings: protein: recombinant;recombinant; chain copies: 2;2; label: 5'-biotin on both strands; blunt, single G/T mismatch at position 32 of strand 1

Molecule | binding signal ([1]; loaded at 10 mM NaCl) | binding signal ([1]; loaded at 100 mM NaCl) | binding signal (MutL (Escherichia coli)) | binding signal [2] | binding signal [3] | binding result (MutS-bio;MutL)
18.4-kb mismatched DNA | 0.567 | 0.073 | 0.25 | 30 | 3 | 
59-bp mismatched DNA (dsDNA) DNA 1: CGCGGGTTTTCGCTATTTATGAAAATTTTCCGGTTTAAGGCGTTTCCGTTCTTCTTCGT DNA 2: ACGAAGAAGAACGGAAACGCCTTAAACTGGAAAATTTTCATAAATAGCGAAAACCCGCG |  |  |  |  |  | binds
